The values that follow come from paper PMC10397247.

The target in one test is T1, 4H3591-AA.
T1 chain: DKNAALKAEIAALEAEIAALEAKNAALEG
The experiment in a line: two-hybrid library CCmax.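 Further: natural log of median RNA to DNA barcode read ratio; higher means stronger binding.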

For another test, the target named is T2, 4H3939-AA.
T2 chain: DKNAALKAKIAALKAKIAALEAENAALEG
Nature of the test: two-hybrid library CCmax.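 Further: natural log of median RNA to DNA barcode read ratio; higher means stronger binding.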 Conditions: mean of both orientations.

A further test deals with T3, 4H3709-AA.
T3 chain: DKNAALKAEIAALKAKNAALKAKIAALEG
Nature of the test: two-hybrid library CCmax.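 Further: natural log of median RNA to DNA barcode read ratio; higher means stronger binding.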 Conditions: mean of both orientations.

The target in the next test is T4, 4H971-AA.
T4 chain: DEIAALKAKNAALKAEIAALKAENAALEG
The experiment in a line: two-hybrid library CCmax.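 Further: natural log of median RNA to DNA barcode read ratio; higher means stronger binding.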 Conditions: mean of both orientations.

The target of another test is T5, 4H3920-AA.
T5 chain: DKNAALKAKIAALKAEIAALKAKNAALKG
Nature of the test: two-hybrid library CCmax. Conditions: mean of both orientations.

A further test has as its target T6, 4H478-AA.
T6 chain: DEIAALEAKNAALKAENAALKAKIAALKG
Nature of the test: two-hybrid library CCmax. As to conditions: mean of both orientations.

The target of a further test is T7, 4H675-AA.
T7 chain: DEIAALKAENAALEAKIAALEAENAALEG
Nature of the test: two-hybrid library CCmax.

For the next test, the target named is T8, 4H3628-AA.
T8 chain: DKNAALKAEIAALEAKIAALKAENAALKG
The experiment in a line: two-hybrid library CCmax. Conditions: mean of both orientations.

In the next test the target is T9, 4H497-AA.
T9 chain: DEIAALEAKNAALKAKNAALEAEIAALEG
Nature of the test: two-hybrid library CCmax. Conditions: mean of both orientations.

The target in another test is T10, 4H656-AA.
T10 chain: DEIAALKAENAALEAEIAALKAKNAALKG
Nature of the test: two-hybrid library CCmax. Conditions: mean of both orientations.

The next test concerns the target T11, 4H391-AA.
T11 chain: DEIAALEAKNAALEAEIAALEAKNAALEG
Nature of the test: two-hybrid library CCmax. Conditions: mean of both orientations.

The target of another test is T12, 4H3666-AA.
T12 chain: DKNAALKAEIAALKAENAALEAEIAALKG
The experiment in a line: two-hybrid library CCmax. Conditions: mean of both orientations.

The next test has as its target T13, 4H428-AA.
T13 chain: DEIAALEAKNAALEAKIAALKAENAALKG
The experiment in a line: two-hybrid library CCmax. Conditions: mean of both orientations.

For the next test, the target named is T14, 4H754-bH.
T14 chain: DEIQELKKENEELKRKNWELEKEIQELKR
The experiment in a line: two-hybrid library CCNG1.

A further test addresses T15, 4H717-bH.
T15 chain: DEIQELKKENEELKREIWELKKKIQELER
The experiment in a line: two-hybrid library CCNG1.

In a further test the target is T16, 4H967-bH.
T16 chain: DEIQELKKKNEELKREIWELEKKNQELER
The experiment in a line: two-hybrid library CCNG1.

Another test concerns the target T17, 4H72-bH.
T17 chain: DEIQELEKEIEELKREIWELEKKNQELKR
The experiment in a line: two-hybrid library CCNG1.

Another test has as its target T18, 4H918-bH.
T18 chain: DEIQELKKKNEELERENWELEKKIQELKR
Nature of the test: two-hybrid library CCNG1.

The target of the next test is T19, 4H883-bH.
T19 chain: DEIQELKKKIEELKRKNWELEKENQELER
Nature of the test: two-hybrid library CCNG1.

In another test the target is T20, 4H883-bN.
T20 chain: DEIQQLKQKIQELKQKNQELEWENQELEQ
Nature of the test: two-hybrid library CCNG1.

A further test deals with T21, 4H797-bH.
T21 chain: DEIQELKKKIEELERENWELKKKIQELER
The experiment in a line: two-hybrid library CCNG1.

In a further test the target is T22, 4H908-bH.
T22 chain: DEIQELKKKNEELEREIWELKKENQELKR
Nature of the test: two-hybrid library CCNG1.

The target of another test is T23, 4H953-bH.
T23 chain: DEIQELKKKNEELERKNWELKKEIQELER
The experiment in a line: two-hybrid library CCNG1.

Another test concerns the target T24, 4H687-bH.
T24 chain: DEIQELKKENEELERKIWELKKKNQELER
The experiment in a line: two-hybrid library CCNG1.

For the next test, the target named is T25, 4H607-bH.
T25 chain: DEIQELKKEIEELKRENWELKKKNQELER
Nature of the test: two-hybrid library CCNG1.

For another test, the target named is T26, 4H797-AA.
T26 chain: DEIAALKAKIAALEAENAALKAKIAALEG
Nature of the test: two-hybrid library CCmax. As to conditions: mean of both orientations.

In another test the target is T27, 4H310-AA.
T27 chain: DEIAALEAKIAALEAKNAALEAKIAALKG
The experiment in a line: two-hybrid library CCmax. As to conditions: mean of both orientations.

The target of the next test is T28, 4H930-AA.
T28 chain: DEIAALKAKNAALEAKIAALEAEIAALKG
The experiment in a line: two-hybrid library CCmax. As to conditions: mean of both orientations.

The target of a further test is T29, 4H909-AA.
T29 chain: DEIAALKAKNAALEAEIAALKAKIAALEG
Nature of the test: two-hybrid library CCmax. Conditions: mean of both orientations.

The next test concerns the target T30, 4H3395-AA.
T30 chain: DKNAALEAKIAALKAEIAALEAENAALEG
Nature of the test: two-hybrid library CCmax. Conditions: mean of both orientations.

A further test has as its target T31, 4H485-AA.
T31 chain: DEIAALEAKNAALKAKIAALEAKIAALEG
Nature of the test: two-hybrid library CCmax. As to conditions: mean of both orientations.

The next test concerns the target T32, 4H710-AA.
T32 chain: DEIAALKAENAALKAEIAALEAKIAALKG
Nature of the test: two-hybrid library CCmax. Conditions: mean of both orientations.

A further test deals with T33, 4H94-AA.
T33 chain: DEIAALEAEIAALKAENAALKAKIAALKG
Nature of the test: two-hybrid library CCmax. As to conditions: mean of both orientations.

The target in a further test is T34, 4H3381-AA.
T34 chain: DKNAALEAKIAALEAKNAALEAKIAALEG
The experiment in a line: two-hybrid library CCmax. Conditions: mean of both orientations.

In a further test the target is T35, 4H3120-AA.
T35 chain: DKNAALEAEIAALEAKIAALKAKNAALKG
The experiment in a line: two-hybrid library CCmax. Conditions: mean of both orientations.

A further test deals with T36, 4H3130-AA.
T36 chain: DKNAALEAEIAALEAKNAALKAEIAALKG
The experiment in a line: two-hybrid library CCmax. As to conditions: mean of both orientations.

A further test addresses T37, 4H3590-AA.
T37 chain: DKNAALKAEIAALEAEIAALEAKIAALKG
Nature of the test: two-hybrid library CCmax. Conditions: mean of both orientations.

The next test deals with T38, 4H891-AA.
T38 chain: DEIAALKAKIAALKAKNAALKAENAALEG
The experiment in a line: two-hybrid library CCmax. Conditions: mean of both orientations.

The target of the next test is T39, 4H3753-AA.
T39 chain: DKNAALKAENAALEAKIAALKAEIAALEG
Nature of the test: two-hybrid library CCmax. As to conditions: mean of both orientations.

For the next test, the target named is T40, 4H3865-AA.
T40 chain: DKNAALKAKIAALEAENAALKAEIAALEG
The experiment in a line: two-hybrid library CCmax. As to conditions: mean of both orientations.

A further test deals with T41, 4H3697-AA.
T41 chain: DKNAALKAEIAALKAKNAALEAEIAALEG
The experiment in a line: two-hybrid library CCmax. Conditions: mean of both orientations.

A further test deals with T42, 4H3016-AA.
T42 chain: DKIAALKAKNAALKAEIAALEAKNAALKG
The experiment in a line: two-hybrid library CCmax. As to conditions: mean of both orientations.

Another test addresses T43, 4H570-AA.
T43 chain: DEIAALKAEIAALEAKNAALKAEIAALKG
Nature of the test: two-hybrid library CCmax. As to conditions: mean of both orientations.

In another test the target is T44, 4H536-AA.
T44 chain: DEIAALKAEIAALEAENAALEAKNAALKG
Nature of the test: two-hybrid library CCmax. As to conditions: mean of both orientations.

The target of another test is T45, 4H745-AA.
T45 chain: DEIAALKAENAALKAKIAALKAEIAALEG
The experiment in a line: two-hybrid library CCmax. As to conditions: mean of both orientations.

For the next test, the target named is T46, 4H458-AA.
T46 chain: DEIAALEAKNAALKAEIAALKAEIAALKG
The experiment in a line: two-hybrid library CCmax. Conditions: mean of both orientations.

The target of another test is T47, 4H3165-AA.
T47 chain: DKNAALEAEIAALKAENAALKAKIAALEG
Nature of the test: two-hybrid library CCmax. Conditions: mean of both orientations.

Another test addresses T48, 4H2865-AA.
T48 chain: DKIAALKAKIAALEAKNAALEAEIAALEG
Nature of the test: two-hybrid library CCmax.

The next test has as its target T49, 4H3410-AA.
T49 chain: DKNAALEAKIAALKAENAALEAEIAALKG
The experiment in a line: two-hybrid library CCmax. Conditions: mean of both orientations.

In another test the target is T50, 4H850-AA.
T50 chain: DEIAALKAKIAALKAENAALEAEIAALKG
Nature of the test: two-hybrid library CCmax. Conditions: mean of both orientations.

The next test has as its target T51, 4H3009-AA.
T51 chain: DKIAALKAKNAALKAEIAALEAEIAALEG
Nature of the test: two-hybrid library CCmax. Conditions: mean of both orientations.

A further test addresses T52, 4H629-AA.
T52 chain: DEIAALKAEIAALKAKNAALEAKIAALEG
Nature of the test: two-hybrid library CCmax. As to conditions: mean of both orientations.

Consider DKNAALKAEIAALEAEIAALEAKNAALEG [4H3591-AA], for which the interaction score with 4H3591-AA is -1.51; in the test with 4H3939-AA, 1.03; in the test with 4H3709-AA it was -0.696; with 4H971-AA, -1.24; in the test with 4H3920-AA, 0.759; in the test with 4H478-AA it was -1.53. The interaction score is -1.63 in the test with 4H675-AA; -0.555 in the test with 4H3628-AA; -1.86 in the test with 4H497-AA; -0.984 with 4H656-AA; -2.02 with 4H391-AA; -1.67 in the test with 4H3666-AA. For the same molecule, the interaction score with 4H428-AA was -1.03.
For the molecule DEIQELKKENEELKREIWELKKKIQELER [4H717-bH], the interaction score with 4H754-bH was 0.538; in the test with 4H717-bH, 0.358; with 4H967-bH it was -0.767; with 4H72-bH, -0.629; in the test with 4H918-bH, 0.0812; in the test with 4H883-bH, -0.589. Further, the interaction score with 4H883-bN was -0.103; with 4H797-bH it was -1.17; with 4H908-bH it was -1.59; in the test with 4H953-bH, -0.135.
For the molecule DEIQELKKEIEELKRENWELKKKNQELER [4H607-bH], the interaction score with 4H754-bH was -0.342; with 4H717-bH, 0.512; with 4H967-bH, -2; with 4H72-bH, -1.24; with 4H918-bH it was -0.801; in the test with 4H687-bH it was -0.72. Moreover, the interaction score with 4H607-bH was 0.163; in the test with 4H883-bH, 0.522; with 4H797-bH, -1.49; in the test with 4H908-bH it was -1.04; with 4H953-bH, -0.825.
In the case of DKIAALKAKIAALEAKNAALEAEIAALEG [4H2865-AA], the interaction score was -0.194 with 4H797-AA; 1.7 in the test with 4H310-AA; -1.5 with 4H930-AA; -0.808 in the test with 4H909-AA; -1.43 with 4H3395-AA; -1.28 with 4H485-AA. Further, the interaction score in the test with 4H710-AA is -0.988; with 4H94-AA, 1.39; in the test with 4H3381-AA, -0.233; with 4H3120-AA, -0.983; in the test with 4H3130-AA it was -0.487; with 4H3590-AA, -0.177. Also, the interaction score with 4H891-AA was -1.8; with 4H3753-AA it was -0.663; with 4H3865-AA it was -1.3; with 4H3697-AA, -1.95; with 4H3016-AA it was -1.4; with 4H570-AA it was 1.01. Moreover, the interaction score is 1.01 in the test with 4H536-AA; 0.436 with 4H745-AA; -0.6 with 4H458-AA; -1.47 in the test with 4H3165-AA; 0.121 with 4H2865-AA; -0.858 with 4H3410-AA. Also, the interaction score in the test with 4H850-AA was 0.586; in the test with 4H3009-AA, 2.01; with 4H629-AA it was -0.872.
